In paper doi:10.1101/2023.05.17.540984:
Where two headings read alike, the source gives them in different places.

Legend:
ELK1 [1] = target: T1, ELK1 (UniProt P19419 1-428); assay: EMSA
T1 sequence: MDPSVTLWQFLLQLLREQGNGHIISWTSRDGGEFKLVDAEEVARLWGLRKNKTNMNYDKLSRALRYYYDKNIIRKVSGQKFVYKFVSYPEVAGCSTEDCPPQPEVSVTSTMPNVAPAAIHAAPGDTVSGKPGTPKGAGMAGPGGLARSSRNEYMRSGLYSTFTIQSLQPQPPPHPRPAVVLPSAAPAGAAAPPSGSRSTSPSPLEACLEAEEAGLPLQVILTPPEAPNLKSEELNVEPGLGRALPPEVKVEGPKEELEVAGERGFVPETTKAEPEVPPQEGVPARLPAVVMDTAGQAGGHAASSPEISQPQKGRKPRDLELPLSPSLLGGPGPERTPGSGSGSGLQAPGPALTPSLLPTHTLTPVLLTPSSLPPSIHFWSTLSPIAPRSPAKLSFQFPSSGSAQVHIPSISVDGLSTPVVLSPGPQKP

ELK1 [2] = target: T1, ELK1; assay: EMSA; remark: listed apart in the source

B1: rs8040749-G probe (centenarian allele) (dsDNA)
DNA 1: CCTGCCTTCCGGAAGTTCATG
DNA 2: CATGAACTTCCGGAAGGCAGG
- binding result (ELK1 [1]): binds

B2: rs8040749-A probe (reference allele) (dsDNA)
DNA 1: CCTGCCTTCCAGAAGTTCATG
DNA 2: CATGAACTTCTGGAAGGCAGG
- binding result (ELK1 [2]): no binding
